Source: patent US7109299B1, “Peptides and compounds that bind to the IL-5 receptor” (Affymax, Inc., priority 1999, dated 2006)
Bridge positions count the residues as written; N and C are the ends. Ends that are not written are not given here. Peptide text beside a SMILES is read from it. I, II: the chains in the order shown.

Columns and labels:
IL-5Rα ECD [1] = biological target: T1, IL-5Rα ECD (Homo sapiens, UniProt Q01344); assay: biochemical
T1 sequence (Q01344 21-342 limits assumed): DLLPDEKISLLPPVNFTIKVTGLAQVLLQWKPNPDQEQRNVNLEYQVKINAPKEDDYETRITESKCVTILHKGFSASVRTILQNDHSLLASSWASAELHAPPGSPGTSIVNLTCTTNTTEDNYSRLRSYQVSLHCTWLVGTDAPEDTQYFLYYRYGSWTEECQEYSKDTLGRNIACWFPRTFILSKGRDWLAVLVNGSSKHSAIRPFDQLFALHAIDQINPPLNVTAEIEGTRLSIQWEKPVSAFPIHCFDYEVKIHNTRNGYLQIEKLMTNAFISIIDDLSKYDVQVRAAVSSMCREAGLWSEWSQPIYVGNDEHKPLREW
Method: Binding affinities of synthetic peptides for IL-5Rα were measured in a competition binding assay using radio-iodinated IL-5. Immulon 4 (Dynatech) microtiter wells were coated with streptavidin (Sigma) by incubating 100 μl of a 50 μg/ml solution in PBS for 30 min. at 37°. The wells were blocked with 200 μl of 1% BSA in PBS for 15 min. at 37°, followed by 100 μl of biotinylated monoclonal antibody, designated mAb 179, at 5 μg/ml in PBS. Soluble IL-5Rα was then immobilized in the wells by incubating 100 μl of a solution of soluble receptor harvest diluted 1:5000 in PBS/0.1% BSA for 1 hr. at 4°. After washing away unbound receptor, 50 μl of various concentrations of test peptide diluted in PBS/0.1% BSA were added to the wells, followed by 50 μl of a fixed concentration of [^125I] IL-5 (Amersham). The binding reactions were incubated at 4° C. for 2 hr, then washed with PBS to remove unbound [^125I] IL-5. Bound [^125I] IL-5 was determined by gamma counting. Total binding was defined by the amount of [^125I] IL-5 bound in the absence of any competitor. Non-specific binding was defined by the amount of [^125I] IL-5 bound in the presence of 30 nM IL-5. Peptide binding data was analyzed to determine the peptide concentration required to reduce specific [^125I] IL-5 binding by 50% (IC50).

human eosinophils = assay type: cell-based
Method: The functional activity of AF18748 was assessed in a human eosinophil adhesion assay (following the method of […], et al, Cytokine 8:248 (1996)). […] AF18748 is therefore a potent and selective antagonist of IL-5 in a human eosinophil functional assay.

[2] = biological target: T2, native IL-5R α/β complex on TF-1 cells (Homo sapiens, UniProt Q01344); assay: competition binding of [125I] IL-5 to TF-1 cells; conditions: read-out: IC50, inhibition of binding of [125I] IL-5 to TF-1 cells
T2 construct: endogenous in cells; host or cells: TF-1 cells
T2 sequence (Q01344 21-420): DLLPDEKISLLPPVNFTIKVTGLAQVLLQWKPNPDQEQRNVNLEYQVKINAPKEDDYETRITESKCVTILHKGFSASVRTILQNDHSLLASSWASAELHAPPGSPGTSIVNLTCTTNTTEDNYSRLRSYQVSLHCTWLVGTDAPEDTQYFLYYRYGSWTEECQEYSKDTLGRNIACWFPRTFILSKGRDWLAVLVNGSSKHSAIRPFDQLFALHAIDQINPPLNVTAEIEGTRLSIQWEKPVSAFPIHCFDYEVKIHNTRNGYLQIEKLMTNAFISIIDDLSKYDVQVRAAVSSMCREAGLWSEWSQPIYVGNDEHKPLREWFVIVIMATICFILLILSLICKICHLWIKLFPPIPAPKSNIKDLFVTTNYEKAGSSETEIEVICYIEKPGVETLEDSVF
Method: The ability of AF18748 to bind to the native IL-5R α/β complex on TF-1 cells was assessed in a competition binding assay (as described in McKinnon et al., J. Exp. Med 186: 121 (1997)). The binding of [^125I]

IL-5RαECD = IL-5RαECD (Homo sapiens, UniProt Q01344); conditions: AF18748 over 10 pM to 1 nM; binding decreases above 1 nM
Method: A “sandwich” binding assay using microvolume fluorimetry (Martens et al., Anal. Biochem., 273:20 (1999)) was used to measure the ligand dependent association of two receptor proteins. IL-5RαECD (the extracellular domain (ECD) of the human IL-5 receptor a chain) was immobilized onto 10 μm beads and incubated with soluble, fluorescently labeled IL-5Rα ECD in the presence or absence of IL-5 or peptide.
Fluorescently labeled mAb 179 was prepared using Cy5 monofunctional reactive dye (Amersham) according to the manufacturer's instructions. (As disclosed in Martens et al., supra, Cy5.5 dye is also suitable.) Fluorescent mAb179:IL-5Rα ECD complexes were formed by preincubating the labeled antibody with an equimolar amount of receptor ECD in phosphate buffered saline (PBS) for 1 hr at room temperature. Mono A 10 μm polystyrene beads (Pharmacia) were coated first with biotinylated bovine serum albumin, then sequentially with streptavidin, biotinylated mAb179, and IL-5Rα ECD. […]
The binding reactions were incubated in microtiter plates overnight at room temperature, then microvolume fluorimetry measurements of bead-associated fluorescence were made using an FMAT instrument (Perkin-Elmer).

[3] = biological target: T3, chimeric IL-5Rα/EGFR receptor (Homo sapiens, UniProt P00533+Q01344); assay: chimeric IL-5Rα/EGFR luciferase reporter cell assay in Ba/F3 cells; assay type: cell-based; conditions: for luciferase activity of Ba/F3 cells expressing the chimera: serial dilutions, 4 hr
T3 construct: A chimeric receptor consisting of the IL-5Rα ECD fused to the transmembrane spanning and intracellular domains; expressed in transfected cells; host or cells: Ba/F3 cells with c-fos enhancer/TK promoter luciferase reporter
Text: A system comprising a chimeric IL-5R-α/EGFR reported cell assay was designed to analyze receptor binding stoichiometry in a cellular context. A chimeric receptor consisting of the IL-5Rα ECD fused to the transmembrane spanning and intracellular domains of the epidermal growth factor receptor (EGFR) was constructed, and stably expressed in Ba/F3 cells that also contained a luciferase reporter gene under the transcriptional control of the c-fos enhancer and minimal thymidine kinase promoter.
In the assay, Ba/F3 cells expressing a chimeric IL-5Rα/EGFR receptor and containing a luciferase reporter gene were starved overnight of the WEHI conditioned medium in which they were maintained, then seeded into microtiter wells at a density of 10^5 cells/well. Following stimulation, the cells were incubated for 4 hr at 37° in a 5% CO2 incubator. LucLite reagent (Packard) was then added to the wells according to the manufacturer's instructions and the plates were assayed for luciferase activity by counting in a Topcount instrument (Packard). Data points represent mean±SEM for 3 separate experiments performed in triplicate. The data has been normalized to the stimulation induced by 1 μM AF18748 in each experiment.

human IL-5 receptor = biological target: T4, human IL-5 receptor (Homo sapiens, UniProt Q01344); conditions: HL60 subclone, sodium butyrate induced; read-out: Kd of IL-5 binding sites; cited from earlier work
T4 construct: host or cells: HL60 subclone induced towards eosinophil differentiation with sodium butyrate
T4 sequence (Q01344 21-420): T2 sequence (Q01344 21-420)
T4 sequence (P32927 17-897 partner): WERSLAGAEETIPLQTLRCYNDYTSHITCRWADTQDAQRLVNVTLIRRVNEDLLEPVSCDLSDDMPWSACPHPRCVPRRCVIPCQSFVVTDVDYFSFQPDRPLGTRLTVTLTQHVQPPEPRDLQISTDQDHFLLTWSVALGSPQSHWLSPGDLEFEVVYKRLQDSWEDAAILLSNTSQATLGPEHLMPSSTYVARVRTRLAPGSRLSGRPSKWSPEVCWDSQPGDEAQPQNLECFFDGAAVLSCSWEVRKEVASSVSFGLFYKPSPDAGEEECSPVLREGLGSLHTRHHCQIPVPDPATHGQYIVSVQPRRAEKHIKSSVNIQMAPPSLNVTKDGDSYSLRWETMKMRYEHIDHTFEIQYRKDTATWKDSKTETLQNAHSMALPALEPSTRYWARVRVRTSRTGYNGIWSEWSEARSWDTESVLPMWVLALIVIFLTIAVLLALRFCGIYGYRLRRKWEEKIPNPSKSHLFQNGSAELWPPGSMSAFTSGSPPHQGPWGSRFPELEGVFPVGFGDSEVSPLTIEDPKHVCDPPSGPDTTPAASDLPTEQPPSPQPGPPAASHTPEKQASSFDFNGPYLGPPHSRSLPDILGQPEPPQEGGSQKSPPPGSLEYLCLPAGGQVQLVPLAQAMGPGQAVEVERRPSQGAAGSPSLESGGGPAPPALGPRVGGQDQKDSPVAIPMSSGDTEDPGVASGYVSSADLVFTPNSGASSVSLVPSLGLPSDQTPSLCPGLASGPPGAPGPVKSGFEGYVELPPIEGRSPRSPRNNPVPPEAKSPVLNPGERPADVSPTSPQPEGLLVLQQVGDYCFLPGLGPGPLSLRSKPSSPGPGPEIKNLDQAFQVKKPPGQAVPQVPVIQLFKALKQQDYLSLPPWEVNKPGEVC

IL-5Rα ECD [4] = biological target: T1, IL-5Rα ECD; assay: gel filtration chromatography of IL-5Rα ECD with peptide; design: IL-5RαECD=ECD of the human IL-5 receptor a chain
Method: Secondly, the ability of peptides to induce receptor dimerization was studied using gel filtration chromatography. Gel filtration chromatography was performed on a Pharmacia Smart system using a Precision Superdex 200 3.2/30 column at 25° C. with a flow rate of 10 μl/min. The buffer was 50 mM Tris pH 7.5, 0.5 M NaCl. The column was calibrated using the Biorad Gel filtration molecular weight standards which contain Thyroglobulin, 670 KD; Bovine gamma globulin, 158 KD; Chicken ovalbumin, 44 KD; Equine myoglobin, 17 KD; Vitamin B12, 1.35 KD. […] Results shown are from a single experiment, representative of three separate runs for each condition.

[5] = IL-5Rα ECD with equimolar peptide, Superdex 200

T3 sequence (Q01344+P00533 fused, stated change not applied): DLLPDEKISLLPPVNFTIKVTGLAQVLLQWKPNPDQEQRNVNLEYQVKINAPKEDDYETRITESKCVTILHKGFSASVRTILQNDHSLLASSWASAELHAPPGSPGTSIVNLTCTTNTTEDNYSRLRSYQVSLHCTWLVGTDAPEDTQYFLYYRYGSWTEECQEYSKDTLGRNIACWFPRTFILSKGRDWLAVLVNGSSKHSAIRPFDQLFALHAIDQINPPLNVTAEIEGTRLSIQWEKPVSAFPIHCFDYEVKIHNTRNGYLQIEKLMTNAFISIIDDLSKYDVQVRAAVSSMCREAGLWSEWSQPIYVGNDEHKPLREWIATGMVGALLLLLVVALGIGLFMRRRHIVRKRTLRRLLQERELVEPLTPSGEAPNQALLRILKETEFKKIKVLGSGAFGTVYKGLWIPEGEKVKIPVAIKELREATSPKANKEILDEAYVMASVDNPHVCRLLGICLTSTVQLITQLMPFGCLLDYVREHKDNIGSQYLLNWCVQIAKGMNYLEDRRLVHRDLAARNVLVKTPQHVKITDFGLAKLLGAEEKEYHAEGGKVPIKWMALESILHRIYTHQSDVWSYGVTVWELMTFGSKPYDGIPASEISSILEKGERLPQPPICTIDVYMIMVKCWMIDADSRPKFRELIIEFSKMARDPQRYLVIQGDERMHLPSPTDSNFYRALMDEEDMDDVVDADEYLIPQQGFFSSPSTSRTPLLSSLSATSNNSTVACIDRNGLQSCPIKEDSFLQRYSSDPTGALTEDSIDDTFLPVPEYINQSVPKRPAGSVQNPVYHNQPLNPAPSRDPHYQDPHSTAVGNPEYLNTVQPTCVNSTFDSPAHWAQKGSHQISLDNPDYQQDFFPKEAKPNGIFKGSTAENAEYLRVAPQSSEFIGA

Row | Molecule | IC50 (IL-5Rα ECD [1]) [nM] | IC50 (human eosinophils) [nM] | IC50 [2] [nM] | association of fluorescently labeled IL-5Rα ECD to IL-5RαECD-coated beads (IL-5RαECD) | basal level of luciferase expression in unstimulated cells [3] | effect on activation of the luciferase reporter by AF18748 ([3]; 200 pM AF18748, increasing concentrations of IL-5) | luciferase activity of Ba/F3 cells expressing the chimera [3] | Kd (human IL-5 receptor) [nM] | Receptor State (IL-5Rα ECD [4]; IL-5Rα ECD with equimolar peptide) | Calculated MW (IL-5Rα ECD [4]; [5]) [kDa] | Elution Volume (IL-5Rα ECD [4]; [5]) | effect on elution / apparent size of IL-5Rα ECD (IL-5Rα ECD [4]; gel filtration)
1 | CC(C)[C@H](NC(=O)[C@H](CSSC[C@H](NC(=O)[C@@H](NC(=O)[C@H](Cc1ccc(O)cc1)NC(=O)CNC(=O)[C@H](CC(=O)O)NC(=O)CNC(=O)CNC(=O)CNC(=O)[C@@H](N)[C@@H](C)O)C(C)C)C(=O)N[C@H](C(=O)N[C@@H](CCC(=O)O)C(=O)N[C@@H](Cc1c[nH]c2ccccc12)C(=O)N[C@@H](C)C(=O)N[C@@H](CCCNC(=N)N)C(=O)N[C@H]1CSSC[C@@H](C(=O)N[C@@H](CCCCN)C(=O)O)NC(=O)[C@H]([C@@H](C)O)NC(=O)[C@@H]2CCCN2C1=O)C(C)C)NC(=O)[C@@H](NC(=O)[C@H](Cc1ccc(O)cc1)NC(=O)CNC(=O)[C@H](CC(=O)O)NC(=O)CNC(=O)CNC(=O)CNC(=O)[C@@H](N)[C@@H](C)O)C(C)C)C(=O)N[C@@H](CCC(=O)O)C(=O)N[C@@H](Cc1c[nH]c2ccccc12)C(=O)N[C@@H](C)C(=O)N[C@@H](CCCNC(=N)N)C(=O)N[C@H]1CSSC[C@@H](C(=O)N[C@@H](CCCCN)C(=O)O)NC(=O)[C@H]([C@@H](C)O)NC(=O)[C@@H]2CCCN2C1=O [AF18748] (I: H-TGGGDGYVCVEWARCPTCK-OH / II: H-TGGGDGYVCVEWARCPTCK-OH; disulfide I:9-II:9, I:15-I:18, II:15-II:18) | 0.78 | 0.348 ± 0.067 | 0.4 ± 0.04 |  |  |  |  |  |  |  |  | 
2 | IL-5: Interleukin 5, natural ligand, disulfide linked homodimer |  |  |  | did not mediate receptor association | reduced basal level of luciferase expression | antagonized | no effect | 0.03 |  |  |  | 
3 | VDECWRIIASHTWFCAEE (disulfide 4-15 (inferred)) [AF17121] |  |  |  | did not mediate the association of labeled receptor with the beads | reduced basal level of luciferase expression |  | no effect |  | Monomer | 89.5 | 1.425 | no effect on the elution of the receptor
